Experimental data published in the Human Domainome abundance scans (Beltran et al. 2025).
± gives the uncertainty stated by the source.

B1: Androgen receptor, residues 557 to 632; numbered along this chain, P10275 (parent)
chain: QKTCLICGDEASGCHYGALTCGSCKVFFKRAAEGKQKYLCASRNDCTIDKFRRKNCPSCRLRKCYEAGMTLGARKL

Variants of: B1
Experiment: abundance fitness (aPCA) (normalised: wild type 0, dead -1); higher = more abundant; growth selection in yeast, the domain comes from the species named
Conditions: Homo sapiens

Variant	abundance fitness
S12Y	-0.031 ± 0.11
S12V	-0.025 ± 0.052
S12W	-0.181 ± 0.085
C24S	-1.1 ± 0.072
C24V	-0.907 ± 0.048
C24W	-0.903 ± 0.059
C24N	-0.904 ± 0.094
C24K	-0.957 ± 0.079
C24H	-0.891 ± 0.095
C24P	-0.853 ± 0.069
C24Q	-0.932 ± 0.086
C24I	-0.904 ± 0.076
C24T	-0.902 ± 0.06
C24G	-0.907 ± 0.04
C24Y	-1.08 ± 0.15
C24M	-0.964 ± 0.075
C24L	-0.898 ± 0.046
C24A	-0.96 ± 0.055
C24F	-1.06 ± 0.099
C24D	-0.695 ± 0.064
C24E	-0.909 ± 0.063
L19I	-0.034 ± 0.1
L19N	-0.065 ± 0.057
L19R	-0.006 ± 0.044

Variant	abundance fitness
L19W	0.029 ± 0.091
L19Q	0.059 ± 0.11
L19G	-0.399 ± 0.044
L19S	-0.109 ± 0.051
L19A	-0.063 ± 0.049
L19E	0.034 ± 0.043
L19K	-0.015 ± 0.043
L19D	-0.048 ± 0.063
L19P	-0.106 ± 0.23
L19V	-0.035 ± 0.047
L19Y	-0.101 ± 0.081
L19M	-0.03 ± 0.075
L19T	-0.017 ± 0.13
L19C	-0.19 ± 0.16
S23L	-0.283 ± 0.035
S23E	-0.013 ± 0.034
S23H	-0.036 ± 0.077
S23W	-0.137 ± 0.041
S23Q	-0.084 ± 0.042
S23M	-0.137 ± 0.035
S23Y	-0.122 ± 0.057
S23K	-0.142 ± 0.039
S23N	-0.108 ± 0.082
S23F	-0.11 ± 0.084

Variant	abundance fitness
S23G	-0.054 ± 0.029
S23A	-0.163 ± 0.037
S23I	-0.836 ± 0.36
S23T	-0.233 ± 0.041
S23D	-0.069 ± 0.069
S23C	-0.185 ± 0.076
A18V	-0.04 ± 0.033
A18P	-0.26 ± 0.052
A18I	0.124 ± 0.16
A18W	-1.07 ± 0.12
A18F	-0.684 ± 0.12
A18Q	-0.223 ± 0.045
A18H	-0.799 ± 0.15
A18E	-0.617 ± 0.074
A18D	-0.232 ± 0.073
A18L	-0.155 ± 0.034
A18G	-0.335 ± 0.033
A18S	-0.142 ± 0.048
A18C	-0.084 ± 0.047
A18R	-0.24 ± 0.039
A18Y	-0.776 ± 0.13
R30D	-0.066 ± 0.11
R30L	0.099 ± 0.053
R30V	-0.066 ± 0.065

Variant	abundance fitness
R30E	0.019 ± 0.14
R30N	0.014 ± 0.069
R30H	0.114 ± 0.074
R30F	0.03 ± 0.052
R30I	-0.067 ± 0.058
R30Y	-0.191 ± 0.063
R30Q	-0.029 ± 0.089
R30W	-0.114 ± 0.17
R30S	-0.016 ± 0.049
R30A	-0.094 ± 0.093
R30P	-0.395 ± 0.098
R30K	0.103 ± 0.087
R30T	0.01 ± 0.065
G17S	-0.319 ± 0.05
G17M	-0.229 ± 0.057
G17R	-0.33 ± 0.032
G17Q	-0.357 ± 0.05
G17W	-0.645 ± 0.065
G17N	-0.061 ± 0.23
G17L	-0.552 ± 0.048
G17T	-0.411 ± 0.054
G17P	-0.691 ± 0.092
K25W	-0.077 ± 0.025
K25A	0.026 ± 0.022

Variant	abundance fitness
K25D	-0.025 ± 0.03
K25E	0.044 ± 0.026
K25N	0.014 ± 0.032
K25L	-0.099 ± 0.021
K25H	-0.011 ± 0.035
K25T	0.005 ± 0.025
K25F	-0.062 ± 0.029
K25G	0.013 ± 0.021
K25I	-0.24 ± 0.033
K25M	0.013 ± 0.027
K25V	-0.043 ± 0.023
K25S	0.03 ± 0.022
K25C	0.012 ± 0.027
K25R	-0.066 ± 0.021
V26I	0.013 ± 0.051
V26H	0.039 ± 0.071
V26W	-0.181 ± 0.037
V26Q	0.007 ± 0.05
V26T	-0.002 ± 0.04
V26S	0.038 ± 0.035
V26E	0.014 ± 0.071
V26A	-0.108 ± 0.12
V26D	0.043 ± 0.077
V26G	-0.001 ± 0.046

Variant	abundance fitness
V26M	0.053 ± 0.042
V26N	0.069 ± 0.05
V26C	-0.012 ± 0.058
V26L	0.008 ± 0.033
V26F	-0.13 ± 0.058
V26P	-0.772 ± 0.13
V26R	0.019 ± 0.026
V26K	0.058 ± 0.037
A31L	-0.225 ± 0.053
A31G	-0.086 ± 0.045
A31N	-0.144 ± 0.14
A31F	-0.214 ± 0.12
A31M	-0.182 ± 0.082
A31S	-0.024 ± 0.059
A31Y	0.086 ± 0.067
A31T	0.025 ± 0.064
A31V	-0.128 ± 0.056
A31E	-0.093 ± 0.068
A31H	-0.102 ± 0.079
A31D	-0.503 ± 0.15
A31C	-0.072 ± 0.062
A31P	-0.519 ± 0.17
A31R	-0.486 ± 0.06
A31K	-0.627 ± 0.18

Variant	abundance fitness
A31Q	-0.075 ± 0.062
A31I	-0.387 ± 0.17
C21H	-0.602 ± 0.15
C21P	-1.21 ± 0.21
C21L	-0.993 ± 0.16
C21S	-1.05 ± 0.15
C21G	-0.976 ± 0.099
C21R	-0.895 ± 0.1
C21D	-1.23 ± 0.32
C21W	-0.694 ± 0.2
C21T	-0.81 ± 0.095
C21Y	-0.849 ± 0.2
C21A	-0.732 ± 0.1
C21K	-0.988 ± 0.17
C21Q	-0.564 ± 0.13
C21I	-0.777 ± 0.11
C21V	-0.754 ± 0.068
C21E	-0.68 ± 0.12
C21M	-0.953 ± 0.12
A32P	-0.591 ± 0.13
A32W	-0.088 ± 0.061
A32S	-0.052 ± 0.045
A32R	-0.155 ± 0.043
A32I	-0.011 ± 0.061

Variant	abundance fitness
A32F	-0.197 ± 0.065
A32E	0.036 ± 0.089
A32L	-0.167 ± 0.046
A32Q	0.034 ± 0.058
A32D	0.007 ± 0.097
A32Y	-0.145 ± 0.065
A32C	-0.023 ± 0.054
A32V	-0.016 ± 0.05
A32M	-0.019 ± 0.068
A32T	0.114 ± 0.05
A32G	-0.001 ± 0.048
A32H	-0.233 ± 0.093
K35A	-0.093 ± 0.052
K35D	-0.118 ± 0.083
K35G	-0.031 ± 0.039
K35C	-0.007 ± 0.07
K35E	0.084 ± 0.058
T20A	-0.041 ± 0.035
T20L	-0.166 ± 0.043
T20I	-0.035 ± 0.22
T20H	-0.299 ± 0.15
T20C	0.002 ± 0.064
T20E	-0.825 ± 0.12
T20R	-0.859 ± 0.063

Variant	abundance fitness
T20Q	-0.856 ± 0.12
T20S	0.047 ± 0.046
T20W	-0.637 ± 0.084
T20N	-0.441 ± 0.21
T20M	-1 ± 0.18
T20V	0.04 ± 0.038
T20K	-0.755 ± 0.24
T20G	-0.539 ± 0.042
T20P	-0.724 ± 0.09
G34D	-0.372 ± 0.49
G22Q	-0.037 ± 0.058
G22W	-0.034 ± 0.052
G22M	-0.163 ± 0.052
G22A	-0.025 ± 0.056
G22T	-0.06 ± 0.063
G22C	-0.064 ± 0.051
G22D	-0.033 ± 0.064
G22I	-0.262 ± 0.054
G22H	-0.152 ± 0.068
G22S	-0.048 ± 0.047
G22R	-0.166 ± 0.047
G22K	-0.114 ± 0.051
G22F	-0.322 ± 0.053
G22E	0.064 ± 0.062

Variant	abundance fitness
G22P	-0.026 ± 0.071
G22Y	-0.207 ± 0.059
G22V	-0.141 ± 0.042
C14E	0.002 ± 0.081
C14I	0.085 ± 0.089
C14S	-0.105 ± 0.069
C14P	-0.057 ± 0.21
C14W	-0.419 ± 0.16
C14D	0.081 ± 0.11
C14V	-0.231 ± 0.079
C14M	-0.087 ± 0.11
C14F	-0.1 ± 0.11
C14G	-0.11 ± 0.054
C14H	-0.035 ± 0.12
C14R	-0.142 ± 0.055
C14T	0.099 ± 0.11
C14A	-0.013 ± 0.07
C14Q	-0.133 ± 0.092
C14L	0 ± 0.056
C14N	-0.351 ± 0.26
F27K	-0.816 ± 0.072
F27Q	-0.839 ± 0.093
F27H	-0.805 ± 0.15
F27T	-0.91 ± 0.07

Variant	abundance fitness
F27R	-0.977 ± 0.067
F27S	-0.983 ± 0.071
F27E	-0.73 ± 0.07
F27D	-0.519 ± 0.085
F27Y	-0.598 ± 0.068
F27A	-0.729 ± 0.052
F27I	-0.548 ± 0.12
F27P	-0.655 ± 0.067
F27W	-0.387 ± 0.046
F27L	-0.766 ± 0.058
F27G	-0.884 ± 0.065
F27M	-1.01 ± 0.14
F27C	-0.833 ± 0.092
K29V	-0.215 ± 0.08
K29Y	-0.148 ± 0.14
K29P	-0.377 ± 0.07
K29L	-0.331 ± 0.086
K29M	-0.245 ± 0.15
K29I	-0.353 ± 0.099
K29R	-0.075 ± 0.057
K29S	-0.248 ± 0.11
K29F	0.019 ± 0.24
K29W	0.035 ± 0.15
K29N	-0.123 ± 0.14

Variant	abundance fitness
K29D	-0.258 ± 0.2
K29C	-0.49 ± 0.28
K29E	0.202 ± 0.11
K29H	-0.024 ± 0.1
K29G	-0.039 ± 0.068
K29Q	-0.169 ± 0.11
H15G	-0.151 ± 0.054
H15V	-0.182 ± 0.075
H15K	-0.106 ± 0.097
H15R	-0.221 ± 0.063
H15I	-0.063 ± 0.2
H15A	-0.151 ± 0.078
H15T	0.045 ± 0.1
H15W	0.097 ± 0.062
H15M	-0.088 ± 0.11
H15N	-0.157 ± 0.088
H15L	-0.211 ± 0.074
H15E	0.099 ± 0.08
H15Q	-0.175 ± 0.12
H15P	-0.27 ± 0.13
H15D	-0.177 ± 0.13
H15Y	-0.237 ± 0.16
H15C	-0.037 ± 0.11
E33Y	-0.187 ± 0.064

Variant	abundance fitness
E33L	-0.173 ± 0.046
E33Q	0.023 ± 0.075
E33R	-0.042 ± 0.043
E33T	-0.058 ± 0.051
E33F	-0.343 ± 0.069
E33H	-0.153 ± 0.086
E33C	0.072 ± 0.071
E33K	0.013 ± 0.075
E33A	-0.121 ± 0.05
E33V	-0.089 ± 0.044
E33P	-0.135 ± 0.066
E33W	-0.25 ± 0.082
E33D	-0.066 ± 0.063
E33G	0.044 ± 0.042
E33I	0.03 ± 0.062
E33M	0.014 ± 0.065
Y16Q	-0.487 ± 0.074
Y16P	-0.455 ± 0.052
Y16K	-0.473 ± 0.08
Y16V	-0.609 ± 0.044
Y16S	-0.408 ± 0.038
Y16N	-0.307 ± 0.12
Y16L	-0.275 ± 0.032
Y16R	-0.684 ± 0.043

Variant	abundance fitness
Y16D	-0.355 ± 0.097
Y16G	-0.432 ± 0.034
Y16T	-0.445 ± 0.044
Y16H	-0.333 ± 0.21
Y16W	-0.122 ± 0.034
Y16A	-0.397 ± 0.035
Y16M	-0.11 ± 0.041
Y16C	-0.566 ± 0.081
G13T	-0.057 ± 0.094
G13E	-0.274 ± 0.13
G13K	-0.229 ± 0.088
G13C	-0.311 ± 0.24
G13V	-0.061 ± 0.062
G13M	-0.163 ± 0.083
G13N	-0.201 ± 0.13
G13L	-0.115 ± 0.064
G13I	-0.416 ± 0.28
G13R	-0.2 ± 0.061
G13S	-0.034 ± 0.074
G13A	-0.167 ± 0.07
G13D	-0.198 ± 0.13
G13W	-0.571 ± 0.12
